Laboratory results published in paper PMC6280682, “The Micronemal Plasmodium Proteins P36 and P52 Act in Concert to Establish the Replication-Permissive Compartment Within Infected Hepatocytes” (Frontiers in Cellular and Infection Microbiology, 2018).

Molecular target: T1, Plasmodium yoelii P36 with a C-terminal mCherry tag (P36^mCherry) (Plasmodium yoelii, UniProt Q7RPW4 25-310)
T1 construct: P36, Plasmodium yoelii 17X, 6-cys s48/45 family, two s48/45 domains; predicted MW with mCherry 66 kDa; also called Py P36^mCherry; not shown: mCherry, C-terminal, kept
T1 sequence: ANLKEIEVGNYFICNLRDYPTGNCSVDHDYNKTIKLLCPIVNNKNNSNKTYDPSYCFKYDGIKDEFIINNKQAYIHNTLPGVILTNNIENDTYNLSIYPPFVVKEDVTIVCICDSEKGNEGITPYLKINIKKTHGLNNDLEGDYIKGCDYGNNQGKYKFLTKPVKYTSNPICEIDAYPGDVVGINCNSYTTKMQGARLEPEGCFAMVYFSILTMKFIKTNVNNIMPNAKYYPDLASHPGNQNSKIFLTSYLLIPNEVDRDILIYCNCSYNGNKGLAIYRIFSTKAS
Assay: affinity purification with mass spectrometry; BS3-crosslinked P36^mCherry sporozoite lysate immunoprecipitated with RFP-Trap, S-Trap digest, LC-MS/MS (Q-Exactive HF), spectral counting
Settings: partners not purified

B1: Plasmodium yoelii P52 (natural protein)
chain: NVPNPNTTIGHFEICEVNTSSGDAEECVLENEFGKMFLFICDIDYNEMSKNIVLPSECAKKTYIDHVNPNGTSPEVNTYDIFPDLIAANESQFRDKFYFYGTPYSSKDIDFICLCFSETKPDIKHVMKMSFKKMTKKIKGCDFGDNIPTKKDLTNGKALYENSSCHIYAYPGDVIGINCYKKDINNIYNNNLELQPNNCFHNVYYEDDILLSSKNLIPNSRVIPDPSNDVKLSKMHSYMSYIILPDEINENVKISCACKRDEYIGTMFLYVNTSKNILTSPDNNVEEIAPLNDHYISIGDMWDMGLHENPEQIQGIISNHANKKYYEHMKIYKSNKMDSSDDDESNETESSENESNERTHNGNRANKDANNSEKMTGNRRKKNNSINNTNYYSNYEDDNGINISTHDKYYEDQHFGNNGPLRKKRTFWQNMFGTS
notes: P52, Plasmodium yoelii 17X, 6-cys s48/45 family, two s48/45 domains; predicted MW 53 kDa; also called Py P52; source: endogenous, P. yoelii P36^mCherry salivary gland sporozoite lysate
stoichiometry N: ~1
